Measurements taken from patent publication US20220031841A1 (ABSCI, published 2022).

T1: Src homology 2 (SH2) domain containing inositol polyphosphate 5-phosphatase 1 (SHIP1) (human, UniProt Q92835 1-1189)
T1 construct: The array carries full-length recombinant human proteins expressed in S. cerevisiae, purified and printed on glass slides; also called INPP5D; INPP5D/SHIP1
T1 sequence: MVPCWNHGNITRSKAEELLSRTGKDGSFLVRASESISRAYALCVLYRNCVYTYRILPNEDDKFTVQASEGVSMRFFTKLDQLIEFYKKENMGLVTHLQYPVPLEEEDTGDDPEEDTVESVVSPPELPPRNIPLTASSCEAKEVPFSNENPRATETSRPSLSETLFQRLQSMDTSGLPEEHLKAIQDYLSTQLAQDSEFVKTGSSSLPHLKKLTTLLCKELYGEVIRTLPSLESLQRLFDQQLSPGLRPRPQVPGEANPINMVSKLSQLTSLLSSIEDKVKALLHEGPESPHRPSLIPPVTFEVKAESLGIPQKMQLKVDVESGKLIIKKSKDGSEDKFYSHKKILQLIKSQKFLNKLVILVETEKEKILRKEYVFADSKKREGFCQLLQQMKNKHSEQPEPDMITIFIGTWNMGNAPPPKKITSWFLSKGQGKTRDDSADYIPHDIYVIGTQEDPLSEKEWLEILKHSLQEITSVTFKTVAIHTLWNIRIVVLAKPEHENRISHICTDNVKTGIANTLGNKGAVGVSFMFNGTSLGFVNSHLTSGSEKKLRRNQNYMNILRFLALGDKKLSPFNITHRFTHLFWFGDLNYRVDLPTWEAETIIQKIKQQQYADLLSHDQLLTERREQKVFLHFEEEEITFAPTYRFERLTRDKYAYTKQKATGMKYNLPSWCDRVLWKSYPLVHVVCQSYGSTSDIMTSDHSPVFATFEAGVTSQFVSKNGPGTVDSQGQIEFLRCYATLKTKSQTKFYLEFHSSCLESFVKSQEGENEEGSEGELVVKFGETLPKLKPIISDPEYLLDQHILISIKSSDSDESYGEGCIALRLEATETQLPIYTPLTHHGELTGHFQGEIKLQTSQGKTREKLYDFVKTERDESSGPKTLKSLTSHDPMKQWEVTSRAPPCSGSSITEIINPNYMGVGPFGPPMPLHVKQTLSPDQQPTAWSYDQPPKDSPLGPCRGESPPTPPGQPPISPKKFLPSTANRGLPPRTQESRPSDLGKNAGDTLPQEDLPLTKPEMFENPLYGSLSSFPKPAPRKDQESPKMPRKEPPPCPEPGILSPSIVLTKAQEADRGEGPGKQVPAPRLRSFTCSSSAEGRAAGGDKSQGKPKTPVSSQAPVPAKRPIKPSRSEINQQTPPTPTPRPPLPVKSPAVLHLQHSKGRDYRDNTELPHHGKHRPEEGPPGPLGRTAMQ


Assays:
[1] = target: T1, Src homology 2 (SH2) domain containing …; test: HuProt protein array, F635 z-score
In short: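 Signal from an Alexa-647 anti-human IgG Fc gamma secondary is converted to a z-score per spot and averaged across the two duplicate spots. Primary antibody incubation: 1 μg/ml, room temperature, 1 hour, on arrays of full-length yeast-expressed proteins.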

[2] = target: T2, Kinesin light chain 4 protein (KLC4) (human, UniProt Q9NSK0 2-619); test: HuProt protein array, antibody at 1 µg/ml, Alexa-647 anti-human IgG Fc; F635 signal as z-score; KLC4 replicate 1
T2 construct: The array carries full-length recombinant human proteins expressed in S. cerevisiae; also called Human KLC4
Description: Large scale protein arrays are versatile and sensitive platforms for antibody specificity evaluation. They can be used for the evaluation of protein binding or affinity reagents that are widely employed in research and clinical applications. The microarray used in our target identification experiment provides the largest number of unique, full-length, individually purified human proteins on a single microscope slide. This allows thousands of interactions to be profiled in a high-throughput manner. The hill-length recombinant proteins are expressed in the yeast S. cerevisiae, purified, and printed on glass slides in duplicate along with a set of control proteins (GST, BSA, histones, IgG, etc.). Such microarray is not restricted to a particular type of surface coating, although the default is glass coated with ultra-thin nitrocellulose film for the non-covalent, yet irreversible, capture of active proteins to the surface. Fourteen Protein arrays were used for the antibody cross-reactivity assay of the samples. […] The antibody-antigen binding score was calculated for each protein represented on the array and expressed as z-scores. […]
Z score is the average Z score of the duplicate spots of a given protein (each protein is printed in duplicate on a HuProt™ array). The Z score of each spot on a given array is calculated according to the equation: […]

T2 sequence (Q9NSK0 2-619 limits assumed): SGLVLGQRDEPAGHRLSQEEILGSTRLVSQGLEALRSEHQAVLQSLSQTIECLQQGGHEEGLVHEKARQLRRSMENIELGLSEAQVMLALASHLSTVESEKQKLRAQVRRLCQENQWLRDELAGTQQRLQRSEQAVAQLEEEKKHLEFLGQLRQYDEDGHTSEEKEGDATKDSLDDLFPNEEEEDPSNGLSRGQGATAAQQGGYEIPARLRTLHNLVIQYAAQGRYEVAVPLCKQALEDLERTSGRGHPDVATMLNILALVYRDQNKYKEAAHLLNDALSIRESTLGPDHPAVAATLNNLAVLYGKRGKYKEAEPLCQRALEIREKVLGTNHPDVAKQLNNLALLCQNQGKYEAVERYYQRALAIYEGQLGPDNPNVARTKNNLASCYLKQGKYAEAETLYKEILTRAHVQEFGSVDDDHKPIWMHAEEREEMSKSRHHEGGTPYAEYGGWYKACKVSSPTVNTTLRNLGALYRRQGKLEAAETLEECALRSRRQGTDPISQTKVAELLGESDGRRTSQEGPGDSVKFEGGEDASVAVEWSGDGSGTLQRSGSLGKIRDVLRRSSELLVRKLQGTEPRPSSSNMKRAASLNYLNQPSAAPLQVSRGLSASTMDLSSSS

Row | Binder | binding result [1] | binding result [2]
1 | TMEL1007 (antibody, V domains shown, It was detected with an anti-human IgG Fc gamma secondary antibody) VH: HVHLVQSGAEVKKPGSSVKVSCTASGGSFSSNPISWVRQAPGHGLQWMGGFVPLFGTANYAPSFHGRLTITADESTSTTYMELNSLRSEDSAVYYCARDFNWNFDFWGQGTLVTVSS VL: QSALTQPASVSGSPGQSITISCTGTSSDIGSYNLVSWYRQYPGKAPKLMIYEVNKRPSGVSNRFSGSKSGNTASLTISGLQAEDEADYYCCSYAGTTTFVIFGRGTKLTVLG | no binding (tested: 1 µg/ml) | binds
2 | TMEL1008 (antibody, V domains shown, It was detected with an anti-human IgG Fc gamma secondary antibody) VH: QVQLVQSGAEVKKPGSSVKVSCKASGGTFNRDGIIWVRQAPGQGLEWMGRIIPILGIANYAQKFQGRVTIIADKSTSTAYMELSSLRSEDTAVYYCARESEVGRGMDVWGQGTTVTVSS VL: ASALTQPASVSGSPGQSITISCTGTSSDVGDYNYVSWYQQHPGKAPKLMIYDVSNRPSGVSHRFSGSKSGNTASLTISGLQAEDEADYYCSSYTISSTLGVFGPGTKVTVLG | no binding (tested: 1 µg/ml) | 
3 | TMEL1010 (antibody, V domains shown, It was detected with an anti-human IgG Fc gamma secondary antibody) VH: QVQLVQSGAEVKKPGASVKVSCKASGYTFSSYGISWVRQAPGQGLEWMGWISAYNGNTNYAKKLQGRVTMTTDTSTSTAYLELRSLRSDDTAVYYCARGDGPFDYWGQGTLVTVSS VL: EIVMTQSPATLSVSPGERATLSCWASQSVSSSLAWYQQKPGQAPRLLMYGASNRATGIPARFSGSGSGTEFTLTISSLQSEDFAVYYCQQYNKWPPDTFGQGTKLEIKR | no binding (tested: 1 µg/ml) | 
4 | TMEL1011 (antibody, V domains shown, It was detected with an anti-human IgG Fc gamma secondary antibody) VH: PVQLVQSGAEVKKPGSSVKVSCKASGGTFSSYSFNWVRQAPGQGLEWMARIIPILGLANYAQKFQGRVTLTADESTSTAYMELSSLRSEDTAIFYCAGMVLGQLGFDPWGQGTLVTVSS VL: QFMLTQPHSVSESPGRTVTISCTRSSGSIARNYVHWYQHRPGSSPTTVIYEDDQRPSGVPDRFSGSIDSSSNSASLTISGLKPEDEADYFCQSYDSNIWVFGGGTKLTVLG | no binding (tested: 1 µg/ml) | 
5 | TMEL1014 (antibody, V domains shown, It was detected with an anti-human IgG Fc gamma secondary antibody) VH: SVQLVESGGGVVQPGRSLRLSCAASGFTFSSYTMHWVRQAPGKGLEWVALISYDGSNKYYADSVKGRFTISRDNPKNTLYLQMNSLRVEDTAVYYCARDWTLGYWGQGTLVTVSS VL: VSSELTQDPAVSVALGQTVRITCQGDSLRNYYANWYQQKPGQAPILVIYDKNNRPSGIPDRFSGSSSGNTASLTITGAQAEDEADYYCNSRDSSGYHLVFGGGTKLTVLG | no binding (tested: 1 µg/ml) | 
6 | TMEL1002 (antibody, V domains shown) VH: not shown VL: ASALTQPASVSGSPGQSITISCTGTSSDVGDYNYVSWYQQHPGKAPKLMIYDVSNRPSGVSNRFSGSKSGNTASLTISGLQAEDEADYYCSSYTSSSTLVFGGGTKLTVLG | no binding (tested: 1 µg/ml) | 
7 | TMEL1012 (antibody, V domains shown) VH: PLQLQESGPGLVKPSETLSLTCTVSGDSITTTYYWGWIRQPPGKGLEWIASIYFTGSTFHNPSLKSRVTMSVDTSKNQFSLNLSSVTAADTAVYYCARRVGNWNYVWFDPWGQGTLVSVSS VL: AYVLTQPPSVSVAPGQTARMTCGGNNIGSKSVHWYRQRPGQAPVLVVYDDTDRPSGIPERFSGSNSGNTATLTISRVEAGDEADYYCQVWDTNSDHVVFGGGTKLTVLG | no binding (tested: 1 µg/ml) | 
8 | TMEL1013 (antibody, V domains shown) VH: PVQLVQSGAEVKKPGSSVKVSCKASGGTFSSYTINWVRQAPGQGLEWMGRIIPILGVANYAQKFQGRVTITADKSTSTAYMDLSSLRSEDTAVYYCAREWERAFDYWGQGTLVTVSS VL: not shown | no binding (tested: 1 µg/ml) | 
9 | TMEL1004 (antibody, V domains shown) VH: QITLKESGPTLVKPTQTLTLTCTFSGFSLNTPGVGVGWIRQPPGKALEWLALIYWDDDKRYRPSLESRLTITKDTSKNHVVLTMTNMDPVDTATYFCAHKNLQYSEWFDPWGQGTLVIVSS VL: EMVLTQSPATLSLSPGERATLSCRASQSVSRNSLAWYQQRPGQTPRLLIYGASSRATGIPDRFSGSGSGTDFTLIISRLEPEDFAVYFCLQYDESPYTFGQGAKLEIKR | no binding (tested: 1 µg/ml) | 
10 | TMEL1009 (antibody, V domains shown) VH: PVQLVQSGAEVKKPGSSVKVSCRASGGTFSNYGLNWVRQAPGQGLEWMGGIIPIFGSVNYAQKFQDRVTITADESTSTTYMDLNSLRSEDTAVYYCATERGHNMERAFDFWGQGTLVTVSS VL: not shown | no binding (tested: 1 µg/ml) | 
